Results as given in PMC11360484 (Toxins, 2024).

Target: T1, recombinant ecarin (rEcarin), SVMP PIII prothrombin activator from Echis pyramidum leakeyi (Echis pyramidum leakeyi (Kenya; entry …)
T1 construct: also called His10-tagged recombinant ecarin
Test: BLI; Octet HTX; […]; 30 C; PBS with 0.1% TWEEN 20 and 0.1% BSA; 180 s association, 180 s dissociation; 1:1 model, […]
Conditions: both partners purified

T1 sequence (heavy, as listed by the source): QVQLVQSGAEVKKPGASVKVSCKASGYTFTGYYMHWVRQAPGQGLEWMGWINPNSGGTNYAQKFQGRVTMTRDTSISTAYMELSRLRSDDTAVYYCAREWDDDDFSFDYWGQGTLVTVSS

B1: H11 IgG1 (synthetic human antibody against rEcarin) (antibody, V domains shown)
VH: not shown
VL: QSALTQPASVSGSPGQSITISCTGTSSDVGGYNYVSWYQQHPGKAPKLMIYEVSNRPSGVSNRFSGSKSGNTASLTISGLQAEDEADYYCSSYTSSSTLVVFGGGTKLTVL
notes: copies: 2 + 2
Kd: 87 ± 8 nM
